The text below walks through data of patent publication US20240158477A1.

The term EC50 (read off the curve) denotes the concentration needed to bring the measured effect to its halfway point.

For assay [1], the target named is SARS-CoV-2 S protein (wildtype) (SARS-CoV-2) (UniProt P0DTC2). The assay can be described thus: cell-based or functional assay.
The target of assay [2] is RBD-Fc (SARS-CoV-2 S protein amino acids 319-541 with human IgG1 Fc) (SARS-CoV-2; human) (UniProt P0DTC2).

Take Fc tagged VHH72 (Fc fusion): the IC50, authentic SARS-CoV-2 neutralization on Vero-E6 cells (viral RNA by RT-PCR) in assay [1] came out at 13.8 nM. For the same substance, in assay [2], the EC50 (read off the curve) is 0.2 nM.
